Test results: article PMC3265891 (The Journal of Biological Chemistry, 2011)

Molecular target: the molecule itself
Experiment: crystal structure

Protein	binding result
human UDP-glucose 6-dehydrogenase E161Q mutant (thiohemiacetal intermediate) (enzyme, UniProt O60701 1-467, looked up, Cys276 covalently modified: Sγ bonded to C6 of the UDP-Glc-derived substrate (thiohemiacetal)) MFEIKKICCIGAGYVGGPTCSVIAHMCPEIRVTVVDVNESRINAWNSPTLPIYEPGLKEVVESCRGKNLFFSTNIDDAIKEADLVFISVNTPTKTYGMGKGRAADLKYIEACARRIVQNSNGYKIVTEKSTVPVRAAESIRRIFDANTKPNLNLQVLSNPQFLAEGTAIKDLKNPDRVLIGGDETPEGQRAVQALCAVYEHWVPREKILTTNTWSSELSKLAANAFLAQRISSINSISALCEATGADVEEVATAIGMDQRIGNKFLKASVGFGGSCFQKDVLNLVYLCEALNLPEVARYWQQVIDMNDYQRRRFASRIIDSLFNTVTDKKIAILGFAFKKDTGDTRESSSIYISKYLMDEGAHLHIYDPKVPREQIVVDLSHPGVSEDDQVSRLVTISKDPYEACDGAHAVVICTEWDMFKELDYERIHKKMLKPAFIFDGRRVLDGLHNELQTIGFQIETIGKKVS	binds

Molecular target: the molecule itself
Experiment: SEC

Protein	stoichiometry N
human UDP-glucose 6-dehydrogenase E161Q mutant (C-terminally truncated) (enzyme, UniProt O60701 1-467, looked up) MFEIKKICCIGAGYVGGPTCSVIAHMCPEIRVTVVDVNESRINAWNSPTLPIYEPGLKEVVESCRGKNLFFSTNIDDAIKEADLVFISVNTPTKTYGMGKGRAADLKYIEACARRIVQNSNGYKIVTEKSTVPVRAAESIRRIFDANTKPNLNLQVLSNPQFLAEGTAIKDLKNPDRVLIGGDETPEGQRAVQALCAVYEHWVPREKILTTNTWSSELSKLAANAFLAQRISSINSISALCEATGADVEEVATAIGMDQRIGNKFLKASVGFGGSCFQKDVLNLVYLCEALNLPEVARYWQQVIDMNDYQRRRFASRIIDSLFNTVTDKKIAILGFAFKKDTGDTRESSSIYISKYLMDEGAHLHIYDPKVPREQIVVDLSHPGVSEDDQVSRLVTISKDPYEACDGAHAVVICTEWDMFKELDYERIHKKMLKPAFIFDGRRVLDGLHNELQTIGFQIETIGKKVS	6
human UDP-glucose 6-dehydrogenase K220A mutant (C-terminally truncated) (enzyme, UniProt O60701 1-467, looked up) MFEIKKICCIGAGYVGGPTCSVIAHMCPEIRVTVVDVNESRINAWNSPTLPIYEPGLKEVVESCRGKNLFFSTNIDDAIKEADLVFISVNTPTKTYGMGKGRAADLKYIEACARRIVQNSNGYKIVTEKSTVPVRAAESIRRIFDANTKPNLNLQVLSNPEFLAEGTAIKDLKNPDRVLIGGDETPEGQRAVQALCAVYEHWVPREKILTTNTWSSELSALAANAFLAQRISSINSISALCEATGADVEEVATAIGMDQRIGNKFLKASVGFGGSCFQKDVLNLVYLCEALNLPEVARYWQQVIDMNDYQRRRFASRIIDSLFNTVTDKKIAILGFAFKKDTGDTRESSSIYISKYLMDEGAHLHIYDPKVPREQIVVDLSHPGVSEDDQVSRLVTISKDPYEACDGAHAVVICTEWDMFKELDYERIHKKMLKPAFIFDGRRVLDGLHNELQTIGFQIETIGKKVS	6
human UDP-glucose 6-dehydrogenase N224A mutant (C-terminally truncated) (enzyme, UniProt O60701 1-467, looked up) MFEIKKICCIGAGYVGGPTCSVIAHMCPEIRVTVVDVNESRINAWNSPTLPIYEPGLKEVVESCRGKNLFFSTNIDDAIKEADLVFISVNTPTKTYGMGKGRAADLKYIEACARRIVQNSNGYKIVTEKSTVPVRAAESIRRIFDANTKPNLNLQVLSNPEFLAEGTAIKDLKNPDRVLIGGDETPEGQRAVQALCAVYEHWVPREKILTTNTWSSELSKLAAAAFLAQRISSINSISALCEATGADVEEVATAIGMDQRIGNKFLKASVGFGGSCFQKDVLNLVYLCEALNLPEVARYWQQVIDMNDYQRRRFASRIIDSLFNTVTDKKIAILGFAFKKDTGDTRESSSIYISKYLMDEGAHLHIYDPKVPREQIVVDLSHPGVSEDDQVSRLVTISKDPYEACDGAHAVVICTEWDMFKELDYERIHKKMLKPAFIFDGRRVLDGLHNELQTIGFQIETIGKKVS	6
human UDP-glucose 6-dehydrogenase D280A mutant (C-terminally truncated) (enzyme, UniProt O60701 1-467, looked up) MFEIKKICCIGAGYVGGPTCSVIAHMCPEIRVTVVDVNESRINAWNSPTLPIYEPGLKEVVESCRGKNLFFSTNIDDAIKEADLVFISVNTPTKTYGMGKGRAADLKYIEACARRIVQNSNGYKIVTEKSTVPVRAAESIRRIFDANTKPNLNLQVLSNPEFLAEGTAIKDLKNPDRVLIGGDETPEGQRAVQALCAVYEHWVPREKILTTNTWSSELSKLAANAFLAQRISSINSISALCEATGADVEEVATAIGMDQRIGNKFLKASVGFGGSCFQKAVLNLVYLCEALNLPEVARYWQQVIDMNDYQRRRFASRIIDSLFNTVTDKKIAILGFAFKKDTGDTRESSSIYISKYLMDEGAHLHIYDPKVPREQIVVDLSHPGVSEDDQVSRLVTISKDPYEACDGAHAVVICTEWDMFKELDYERIHKKMLKPAFIFDGRRVLDGLHNELQTIGFQIETIGKKVS	6
human UDP-glucose 6-dehydrogenase T131S mutant (C-terminally truncated) (enzyme, UniProt O60701 1-467, looked up) MFEIKKICCIGAGYVGGPTCSVIAHMCPEIRVTVVDVNESRINAWNSPTLPIYEPGLKEVVESCRGKNLFFSTNIDDAIKEADLVFISVNTPTKTYGMGKGRAADLKYIEACARRIVQNSNGYKIVTEKSSVPVRAAESIRRIFDANTKPNLNLQVLSNPEFLAEGTAIKDLKNPDRVLIGGDETPEGQRAVQALCAVYEHWVPREKILTTNTWSSELSKLAANAFLAQRISSINSISALCEATGADVEEVATAIGMDQRIGNKFLKASVGFGGSCFQKDVLNLVYLCEALNLPEVARYWQQVIDMNDYQRRRFASRIIDSLFNTVTDKKIAILGFAFKKDTGDTRESSSIYISKYLMDEGAHLHIYDPKVPREQIVVDLSHPGVSEDDQVSRLVTISKDPYEACDGAHAVVICTEWDMFKELDYERIHKKMLKPAFIFDGRRVLDGLHNELQTIGFQIETIGKKVS	6
